Source: article PMC9984183 (Science Advances, 2023)

Target: human secretory pathway Ca2+/Mn2+ ATPase 1, isoform 1a (SPCA1a), PA-tagged (human, UniProt P98194)
Test: SEC

human secretory pathway Ca2+/Mn2+ ATPase 1, isoform 1a (SPCA1a), PA-tagged, sequence (P98194 whole entry, canonical isoform): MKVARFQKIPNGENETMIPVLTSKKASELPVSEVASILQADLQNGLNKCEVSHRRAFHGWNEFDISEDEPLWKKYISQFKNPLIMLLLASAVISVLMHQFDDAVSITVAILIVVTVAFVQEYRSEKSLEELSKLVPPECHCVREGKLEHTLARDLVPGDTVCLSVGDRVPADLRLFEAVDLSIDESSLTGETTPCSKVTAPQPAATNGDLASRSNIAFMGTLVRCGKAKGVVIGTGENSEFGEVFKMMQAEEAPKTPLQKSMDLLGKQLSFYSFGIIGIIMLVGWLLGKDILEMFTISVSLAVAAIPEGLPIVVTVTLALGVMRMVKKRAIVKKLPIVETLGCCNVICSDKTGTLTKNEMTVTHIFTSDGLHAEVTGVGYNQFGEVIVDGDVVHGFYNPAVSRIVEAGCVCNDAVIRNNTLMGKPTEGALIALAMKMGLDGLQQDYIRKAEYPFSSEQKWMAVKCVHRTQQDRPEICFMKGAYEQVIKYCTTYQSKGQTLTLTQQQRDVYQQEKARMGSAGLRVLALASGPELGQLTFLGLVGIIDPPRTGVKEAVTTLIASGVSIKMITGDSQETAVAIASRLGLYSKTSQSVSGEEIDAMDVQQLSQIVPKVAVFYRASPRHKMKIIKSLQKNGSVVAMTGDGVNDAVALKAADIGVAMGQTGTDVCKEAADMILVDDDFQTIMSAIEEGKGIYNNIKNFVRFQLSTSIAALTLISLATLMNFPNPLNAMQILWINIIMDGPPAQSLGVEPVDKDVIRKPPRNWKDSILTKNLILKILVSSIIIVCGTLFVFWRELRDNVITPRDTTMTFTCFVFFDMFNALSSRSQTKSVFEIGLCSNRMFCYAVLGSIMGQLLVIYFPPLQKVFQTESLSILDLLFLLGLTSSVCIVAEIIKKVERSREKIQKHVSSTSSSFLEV

binding result: binds
B1: nanobody 14 (Nb14), recombinant (VHH)
VHH: QVQLQESGGGLVQAGGSLRLSCAASGSIFGADWMGWYRQAPGKEREFVAGIGHGASTYYADSVKGRFTISRDNAKNTVYLQMNSLKPEDTAVYYCAVQYTQGWSGQYRSYDSLLYWGQGTQVTVSS
